Results from publication PMC5245964.

Legend:
Test in all cases: AUC; sedimentation velocity, 42,000 rpm, 20°C, 0.3–0.5 mg/mL in buffer HST300, continuous c(s) distribution (SEDFIT)
[1] = biological target: Mis18β (insect-cell-expressed, untagged) (human) (UniProt O43482)
[2] = biological target: Mis18α:Mis18β complex (insect-cell-expressed) (human) (UniProt Q9NYP9); settings: scale: M18BP1^1–140-MBP per Mis18α:Mis18β hexamer
[3] = biological target: MBP-Mis18β (insect-cell-expressed) (human) (UniProt O43482)
[4] = biological target: 6His-Mis18β (insect-cell-expressed) (human) (UniProt O43482)
Chain of 6His-Mis18β (insect-cell-expressed) (human) (O43482 whole entry): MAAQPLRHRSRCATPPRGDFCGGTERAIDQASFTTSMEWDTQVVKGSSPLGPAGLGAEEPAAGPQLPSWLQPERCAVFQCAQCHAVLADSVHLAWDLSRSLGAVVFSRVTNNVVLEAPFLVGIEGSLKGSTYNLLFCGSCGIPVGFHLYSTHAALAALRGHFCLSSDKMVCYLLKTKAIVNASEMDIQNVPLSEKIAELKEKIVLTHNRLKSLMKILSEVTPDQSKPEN

Chain of Mis18α (insect-cell-expressed, 6His cleaved) (Q9NYP9 whole entry): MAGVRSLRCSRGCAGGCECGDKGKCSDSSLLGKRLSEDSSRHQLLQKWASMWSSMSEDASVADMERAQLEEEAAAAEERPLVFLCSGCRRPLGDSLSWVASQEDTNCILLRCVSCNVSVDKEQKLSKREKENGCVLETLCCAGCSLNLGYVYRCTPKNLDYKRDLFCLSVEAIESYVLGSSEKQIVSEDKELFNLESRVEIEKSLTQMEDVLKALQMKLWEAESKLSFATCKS
Chain of Mis18α:Mis18β complex (insect-cell-expressed) (human) (Q9NYP9 whole entry, chain 1 of 2): as the sequence (Q9NYP9 whole entry) above
Chain of Mis18α:Mis18β complex (insect-cell-expressed) (human) (O43482 whole entry, chain 2 of 2, further chain): as the sequence (O43482 whole entry) above
Chain of 6His-Mis18α (insect-cell-expressed) (Q9NYP9 whole entry): as the sequence (Q9NYP9 whole entry) above
Chain of MBP-Mis18α (insect-cell-expressed) (Q9NYP9 whole entry): as above
Chain of MBP-Mis18β (insect-cell-expressed) (human) (O43482 whole entry): as the sequence (O43482 whole entry) above
Chain of Mis18β (insect-cell-expressed, untagged) (human) (O43482 whole entry): as above
Chain of M18BP1^1–140-MBP (Q6P0N0 1-140): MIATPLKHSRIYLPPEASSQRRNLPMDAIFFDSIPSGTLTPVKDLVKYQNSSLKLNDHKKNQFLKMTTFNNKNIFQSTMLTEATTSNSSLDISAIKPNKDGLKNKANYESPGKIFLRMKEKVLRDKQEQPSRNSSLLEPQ

Question: How did the stoichiometry N (Mis18α per Mis18β (4:2 hexamer)) [1] turn out when “Mis18α (insect-cell-expressed, 6His cleaved) (from UniProt Q9NYP9 1-233) (natural protein)” was run?
Answer: 2

Question: For “M18BP1^1–140-MBP (from UniProt Q6P0N0 1-140) (domain or fragment)”, which stoichiometry N [2] is on record?
Answer: 2

Question: “6His-Mis18α (insect-cell-expressed) (from UniProt Q9NYP9 1-233) (natural protein)” was tested. Which stoichiometry N (MBP-Mis18β per complex) [3] did it give?
Answer: 2

Question: For “MBP-Mis18α (insect-cell-expressed) (from UniProt Q9NYP9 1-233) (natural protein)”, which stoichiometry N (MBP-Mis18α per complex) [4] is on record?
Answer: 4
